In article PMC11203801:

Tests used:
Details in all cases: remark: other sources report otherwise
[1] = biological target: human HSP60 (60-kDa Heat Shock Protein) (human), P10809; test: native gel or EMSA; HSP60 and HSP10 mixed at the same molar ratio, PBS or Mizoribine below 10 mM (1, 5 mM); Native/PAGE gradient gel, Coomassie stain
[2] = biological target: human HSP60 (60-kDa Heat Shock Protein) (human), P10809; test: native gel or EMSA; purified HSP60 and HSP10 each run on Native-PAGE (5-12% gradient gel by the legend; Blue NativePAGE 3-12% Bis-Tris by the methods), in the absence of ATP, Coomassie stain
[3] = biological target: human HSP60 (60-kDa Heat Shock Protein) (human), P10809; test: negative-stain transmission electron microscopy; HSP60 and HSP10 (0.1 mM) incubated for 10 min in the absence of Mizoribine, treated with 2% uranyl acetate; particles classified and counted
[4] = biological target: human HSP60 (60-kDa Heat Shock Protein) (human), P10809; test: negative-stain transmission electron microscopy; HSP60 and HSP10 (0.1 mM) incubated for 10 min with 10 mM Mizoribine, treated with 2% uranyl acetate; particles classified and counted

stoichiometry N [1]: 7
stoichiometry N [2]: 7
stoichiometry N [3]: 7
share of observed particles as HSP60 (7) (single ring structure, no HSP10), with 10 mM Mizoribine [4]: 4%
B1: human HSP60 (60-kDa Heat Shock Protein), P10809 27-573 (natural protein)
chain: AKDVKFGADARALMLQGVDLLADAVAVTMGPKGRTVIIEQSWGSPKVTKDGVTVAKSIDLKDKYKNIGAKLVQDVANNTNEEAGDGTTTATVLARSIAKEGFEKISKGANPVEIRRGVMLAVDAVIAELKKQSKPVTTPEEIAQVATISANGDKEIGNIISDAMKKVGRKGVITVKDGKTLNDELEIIEGMKFDRGYISPYFINTSKGQKCEFQDAYVLLSEKKISSIQSIVPALEIANAHRKPLVIIAEDVDGEALSTLVLNRLKVGLQVVAVKAPGFGDNRKNQLKDMAIATGGAVFGEEGLTLNLEDVQPHDLGKVGEVIVTKDDAMLLKGKGDKAQIEKRIQEIIEQLDVTTSEYEKEKLNERLAKLSDGVAVLKVGGTSDVEVNEKKDRVTDALNATRAAVEEGIVLGGGCALLRCIPALDSLTPANEDQKIGIEIIKRTLKIPAMTIAKNAGVEGSLIVEKIMQSSSEVGYDAMAGDFVNMVEKGIIDPTKVVRTALLDAAGVASLLTTAEVVVTEIPKEEKDPGMGAMGGMGGGMGGGMF
